PMC7092807 (Biochemical and Biophysical Research Communications, 2004)

Biological target: the molecule itself
Experiment: SEC

B1: SARS-CoV soluble S ectodomain (Se) (domain or fragment)
chain: not shown
stoichiometry N: 3
